Where two headings read alike, the source gives them in different places.
Tests used:
hDLL3-MC38 tumor model = assay: Biodistribution of radio-labelled DARPin conjugates in hDLL3-MC38 tumor model; type: in vivo, mouse; details: Pb-212 DOTAM conjugate 0.01 mg/kg (10 μCi) i.v., athymic nude mice, s.c. hDLL3-MC38, Example 8
Source text: hDLL3-MC38 tumor model. ATH mice were purchased from Envigo. General handling and maintenance of mice was done as described above for the NCI-H82 tumor model. hDLL3-MC38 cells were purchased from Biocytogen (Catalog No. 311448). […] Cells were quantified using Countess cell counter.
Biodistribution study. […] Based on immunohistochemistry analyses, the hDLL3-MC38 tumors have a higher level of human DLL3 expression than the NCI-H82 tumors described in Example 3 (data not shown). Biodistribution was monitored at 1 h, 4 h and 24h post-injection. Mice were euthanized by CO2 inhalation and cervical dislocation.
Mice were euthanized by CO2 inhalation and cervical dislocation.

[1] = biological target: T1, NCI-H82 cells expressing human DLL3 (Homo sapiens, UniProt Q9NYJ7); assay: Cell binding titration on NCI-H82 cells; type: cell-based
T1 construct: a human lung carcinoma cell line which endogenously expresses DLL3 on the surface; host or cells: NCI-H82
T1 sequence (Q9NYJ7 27-618): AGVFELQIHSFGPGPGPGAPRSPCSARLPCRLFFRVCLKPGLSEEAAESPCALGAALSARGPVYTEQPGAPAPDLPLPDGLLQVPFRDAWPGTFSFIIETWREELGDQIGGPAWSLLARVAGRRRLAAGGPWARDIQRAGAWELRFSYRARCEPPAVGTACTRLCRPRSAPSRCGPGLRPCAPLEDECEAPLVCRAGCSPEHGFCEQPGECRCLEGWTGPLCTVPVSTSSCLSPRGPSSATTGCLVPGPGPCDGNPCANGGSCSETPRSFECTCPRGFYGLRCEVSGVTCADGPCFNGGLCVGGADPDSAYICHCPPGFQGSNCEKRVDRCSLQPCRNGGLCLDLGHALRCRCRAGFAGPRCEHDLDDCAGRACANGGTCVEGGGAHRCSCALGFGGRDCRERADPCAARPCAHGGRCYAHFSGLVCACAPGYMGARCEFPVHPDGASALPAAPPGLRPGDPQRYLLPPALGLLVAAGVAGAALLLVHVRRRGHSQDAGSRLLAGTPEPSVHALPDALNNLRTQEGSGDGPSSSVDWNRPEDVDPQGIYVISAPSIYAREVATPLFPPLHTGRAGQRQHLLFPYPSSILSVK
Protocol: Furthermore, cell binding titration assays were also performed with selected two domain (2D) designed ankyrin repeat proteins to determine binding to human cells expressing DLL3 endogenously, in absence and presence of human serum albumin. For this purpose, NCI-H82 cells were used, a human lung carcinoma cell line which endogenously expresses DLL3 on the surface. […] A non-binding DARPin comprising SEQ ID NO: 22 was used as a negative control.
In brief, 1×10^5 cells/well were resuspended in 100 μl DARPin dilution (500 nM, 1:5 serial diluted in PBS, 2% FBS) and incubated for 1 h at 4° C. This step was performed in absence and presence of 10 μM Human Serum Albumine (CSL Behring #150570). Cells were washed twice with PBS, 2% FBS and resuspended in 100 μl anti-DARPin antibody (rabbit anti-DARPin 1.4.8) and LIVE/DEAD cell stain (1:1000, Biolegend #423106). After incubation and washing, cells were incubated with detection antibody for 30 minutes (Goat […] IgG (H+L), AF647, Thermo Fisher #21445). Cells were fixed (Paraformaldehyde Solution, TCL119, LucernaChem) and acquired at Attune N×T (Thermo Life Technologies). Raw fcs files were exported and analyzed using FlowJo software. MFI values of live AF647-positive cells were exported from FlowJo and plotted using GraphPad Prism software.

human DLL3 = biological target: T2, human DLL3 (Homo sapiens, UniProt Q9NYJ7); assay: SPR multi-trace analysis, binding to human DLL3 (Example 1); details: immobilized bio-DLL3 (hDLL3 ECD), PBS pH 7.4, 1:1 Langmuir, Table 1
T2 construct: (Q9NYJ7, Gene ID: 10683, residues 27 to 466; purchased from Evitria); 3C protease recognition site (C); Fc knob into hole (C); purchased Evitria
T2 sequence (Q9NYJ7 27-466): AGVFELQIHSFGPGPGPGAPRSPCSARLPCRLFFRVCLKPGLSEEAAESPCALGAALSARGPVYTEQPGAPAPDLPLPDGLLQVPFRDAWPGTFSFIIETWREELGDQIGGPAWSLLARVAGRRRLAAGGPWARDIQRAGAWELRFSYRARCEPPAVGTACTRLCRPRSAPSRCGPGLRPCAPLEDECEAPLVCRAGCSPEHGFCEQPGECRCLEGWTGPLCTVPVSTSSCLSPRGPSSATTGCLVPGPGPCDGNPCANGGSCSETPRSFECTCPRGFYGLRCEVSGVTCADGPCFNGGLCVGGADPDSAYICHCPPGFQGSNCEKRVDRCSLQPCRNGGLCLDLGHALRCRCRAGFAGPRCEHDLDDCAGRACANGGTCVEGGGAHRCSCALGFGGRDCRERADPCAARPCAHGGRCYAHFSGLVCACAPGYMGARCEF
Protocol: Kinetic binding parameters and binding affinities of two domain (2D) ankyrin repeat proteins comprising an ankyrin repeat domain with binding specificity for DLL3 and an ankyrin repeat domain with binding specificity for serum albumin were determined by surface plasmon resonance (SPR) multi-trace analysis.
In brief, a SPR assay was used to determine the binding kinetics to the target human DLL3. The data were generated using BioRad ProteOn instrument in SPR running buffer (PBS, pH 7.4 containing 0.005% Tween 20®). […] The chip was coated with biotinylated target (bio-DLL3) to reach a signal intensity of 1780 RU. All analytes (3-fold dilution ranging from 300-33.3 nM) were injected in succession for 240 s (100 μl/min) and dissociation was recorded for 10800 s (100 μl/min). Each injection was followed by a regeneration step with 16 mM H3PO4 for 18 s. […] The bio-DLL3 target used was as described in U.S. 63/550,951, i.e. the extracellular domain (ECD) of human DLL3 protein (Q9NYJ7, Gene ID: 10683, residues 27 to 466; purchased from Evitria) linked via an Avi-tag (for site-directed biotinylation), followed by a 3C protease recognition site, to a Fc knob into hole (hDLL3 ECD-Avi-Fckih).

B1: MAM282: Two domain (2D) ankyrin repeat protein: serum albumin-specific domain (SEQ ID NO: 7), PT linker, DLL3-specific domain (SEQ ID NO: 2) (protein)
chain: DLGKKLLEAARAGQDDEVRELLKAGADVNAKDYFSHTPLHLAARNGHLKIVEVLLKAGADVNAKDFAGKTPLHLAADAGHLEIVEVLLKAGADVNAQDIFGKTPADIAADAGHEDIAEVLQKAAGSPTPTPTTPTPTPTTPTPTPTGSDLGKKLLAAAREGQDDEVRELLKAGADVNAKDIWGQTPLHIAAWFGHLEIVEVLLKAGADVNAKDQTGHTPLHLAAKFGHLEIVEVLLKAGADVNAQDLLGRTPADLAAEEGHEDIAEVLQKAA
modifications: Ankyrin repeat protein (MAM282)
Blood % ID/g (hDLL3-MC38 tumor model; 4 h): 28.6 % ID/g
Kidneys % ID/g (hDLL3-MC38 tumor model; 4 h): 19.4 % ID/g
Tumors % ID/g (hDLL3-MC38 tumor model; 4 h): 21.4 % ID/g
Blood % ID/g (hDLL3-MC38 tumor model; 24 h): 9.9 % ID/g
Kidneys % ID/g (hDLL3-MC38 tumor model; 24 h): 27.9 % ID/g
Tumors % ID/g (hDLL3-MC38 tumor model; 24 h): 51.9 % ID/g
EC50 ([1]; absence of human serum albumin, read-out: Cell binding EC50, w/o HSA): 2.6 nM
EC50 ([1]; presence of 10 μM human serum albumin, read-out: Cell binding EC50, with HSA): 2.6 nM
Kd (human DLL3): 3.03 nM
koff (human DLL3): 3.79e-05 s⁻¹
kon (human DLL3): 12500 M⁻¹ s⁻¹

Source: US20250332297A1, “DLL3-SPECIFIC BINDING CONSTRUCTS AND THEIR USE IN RADIOTHERAPY” (MOLECULAR PARTNERS AG, priority 2024, published 2025)
